Measurements: US20090247540A1 (published 2009)

Assays:
crystal structure = target: the molecule itself; experiment: crystal structure
[1] = target: the molecule itself; experiment: cell surface cross-linking with DSP, immunoprecipitation, SDS-PAGE

| Protein | binding result (crystal structure) | binding result [1] |
| --- | --- | --- |
| EphA2 ligand-binding domain (receptor, The crystallised domain; It forms dimers in the crystal; also called EphA2 LBD; EphA2-LBD) EVVLLDFAAAGGELGWLTHPYGKGWDLMQNIMNDMPIYMYSVCNVMSGDQDNWLRTNWVYRGEAERIFIELKFTVRDCNSFPGGASSCKETFNLYYAESDLDYGTNFQKRLFTKIDTIAPDEITVSSDFEARHVKLNVEERSVGPLTRKGFYLAFQDIGACVALLSVRVYYKKC | binds |  |
| EphB2 on PC-3 cells (receptor, human, UniProt P29323 19-1055, looked up, whole, on cells) VEETLMDSTTATAELGWMVHPPSGWEEVSGYDENMNTIRTYQVCNVFESSQNNWLRTKFIRRRGAHRIHVEMKFSVRDCSSIPSVPGSCKETFNLYYYEADFDSATKTFPNWMENPWVKVDTIAADESFSQVDLGGRVMKINTEVRSFGPVSRSGFYLAFQDYGGCMSLIAVRVFYRKCPRIIQNGAIFQETLSGAESTSLVAARGSCIANAEEVDVPIKLYCNGDGEWLVPIGRCMCKAGFEAVENGTVCRGCPSGTFKANQGDEACTHCPINSRTTSEGATNCVCRNGYYRADLDPLDMPCTTIPSAPQAVISSVNETSLMLEWTPPRDSGGREDLVYNIICKSCGSGRGACTRCGDNVQYAPRQLGLTEPRIYISDLLAHTQYTFEIQAVNGVTDQSPFSPQFASVNITTNQAAPSAVSIMHQVSRTVDSITLSWSQPDQPNGVILDYELQYYEKELSEYNATAIKSPTNTVTVQGLKAGAIYVFQVRARTVAGYGRYSGKMYFQTMTEAEYQTSIQEKLPLIIGSSAAGLVFLIAVVVIAIVCNRRGFERADSEYTDKLQHYTSGHMTPGMKIYIDPFTYEDPNEAVREFAKEIDISCVKIEQVIGAGEFGEVCSGHLKLPGKREIFVAIKTLKSGYTEKQRRDFLSEASIMGQFDHPNVIHLEGVVTKSTPVMIITEFMENGSLDSFLRQNDGQFTVIQLVGMLRGIAAGMKYLADMNYVHRDLAARNILVNSNLVCKVSDFGLSRFLEDDTSDPTYTSALGGKIPIRWTAPEAIQYRKFTSASDVWSYGIVMWEVMSYGERPYWDMTNQDVINAIEQDYRLPPPMDCPSALHQLMLDCWQKDRNHRPKFGQIVNTLDKMIRNPNSLKAMAPLSSGINLPLLDRTIPDYTSFNTVDEWLEAIKMGQYKESFANAGFTSFDVVSQMMMEDILRVGVTLAGHQKKILNSIQVMRAQMNQIQSVEGQPLARRPRATGRTKRCQPRDVTKKTCNSNDGKKKGMGKKKTDPGRGREIQGIFFKEDSHKESNDCSCGG |  | no binding |
